Experimental data published in patent publication US20110105393A1, “METHODS FOR PROMOTING STEM CELL PROLIFERATION AND SURVIVAL” (priority 2007, published 2011).

What was measured:
[1] = tested on: insulin/IGF-1 receptors; assay: Insulin/IGF-1 receptor activation in NSC cultures; type: cell-based, mouse; conditions: effect of inhibitor; DAPT 1 μM
Description: (§1) Cell culture: E13.5 cortical embryonic mouse CNS stem cells were grown as previously described (Johe, et al., Genes Dev 10, 3129-40, 1996). Cells were expanded in serum-free DMEM/F12 medium with N2 supplement and FGF2 (20 ng/ml) for 5 days under 5% oxygen conditions and were re-plated fresh or from frozen stocks at 1,000-10,000 cells per cm^2. FGF2 was included throughout the studies, unless otherwise stated. Adult rat (3-6 months old) or adult mouse (2-4 months old) SVZ NSC cultures were grown in the same medium as the fetal cultures.
(§2) Pharmacological treatments: Unless otherwise stated, the following concentrations were used: Dll4 and Ang-2 (in vitro, 500 ng/ml; in vivo 12.5 μg as a single injection), FGF2 (in vitro, 20 ng/ml), JAK inhibitor (in vitro, 200 nM; in vivo, 250 ng as a single injection), insulin (in vitro, 25 μg/ml; in vivo, 40 μg as a single injection), DAPT (1 μM), Fluorogold (0.5 μg). For the survival assays, compounds were added daily and Notch ligands every 2 days for the duration of the experiment. For the effects of kinase inhibitors on Notch activation, cells were pre-incubated for 1 h prior to Notch activation.
It was previously shown that in NSCs Notch activation leads to rapid phosphorylation of Akt (Androutsellis-Theotokis, A. et al., Nature 442, 823-6, 2006), a mediator of insulin signalling (Cantley, Science 296, 1655-7, 2002). […]

[2] = tested on: Notch receptor; assay: Notch receptor cleavage (activation) in NSC cultures; type: cell-based, mouse; conditions: effect of inhibitor; DAPT 1 μM
Description: as §1, §2
It was previously shown that in NSCs Notch activation leads to rapid phosphorylation of Akt (Androutsellis-Theotokis, A. et al., Nature 442, 823-6, 2006), a mediator of insulin signalling (Cantley, Science 296, 1655-7, 2002). […] Activation of the Notch receptor by addition of insulin or Dll4 was inhibited by DAPT, a γ-secretase inhibitor that blocks Notch cleavage. […] Insulin maintained STAT3-Ser727 phosphorylation levels, and acutely (1-h) induced it following a 16-h insulin withdrawal phase (FIG. 1c).

[3] = tested on: Hes3; assay: Hes3 protein immuno-staining in fetal NSC cultures; type: cell-based, mouse; conditions: 2 day treatment
Description: as §1
Hes3 mRNA is present in fetal NSC cultures under conditions that support their self-renewal but CNTF-induced differentiation (Bonni, A. et al., Science 278, 477-83, 1997; Rajan & McKay, J Neurosci 18, 3620-9, 1998): downregulates Hes3 message (Androutsellis-Theotokis, A. et al., Nature 442, 823-6, 2006). Knockout studies have shown a role of Hes3 in self-renewal (Hatakeyama, J. et al., Development 131, 5539-50, 2004). It was investigated if Hes3 mediates stem cell functions in vitro to assess its use as a functional NSC marker. Fetal (E13.5) cortical tissue was dissociated and magnetic sorting was used to isolate a cell population that expressed AC133, an established marker of NSCs (Uchida, N. et al., Proc Natl Acad Sci USA 97, 14720-5, 2000). […]

[4] = tested on: NSC cultures; assay: Incidence of Tie-2 spikes in NSC cultures; type: cell-based; conditions: for % of cells with at least one spike: NSC cultures; for spike number: thirty minutes after treatment
Description: A protrusion of the cell membrane was identified in neuronal stem cells (NSCs) when the Tie-2 receptor is concentrated. This can be visualized using antibodies that bind Tie-2. The protrusion was termed a spike. These spikes appear 30 minutes after treatment with pharmaceutical agents. […] increase spike number thirty minutes after treatment. […] Thus, a novel sub-cellular structure ahs been identified. These structures could regulate the responsiveness of cells to treatments.
Thus, a novel protrusion of the cell membrane in NSCs has been identified where the Tie-2 receptor is concentrated. This can be easily visualized using an antibody against Tie-2 that recognizes a particular epitope. […] Indeed, the spike is devoid of actin filaments or tubulin. The spikes can be detected within thirty minutes of contacting the cultures with an the factors. Thus, the spikes provide a rapid assay for the effect of pharmacologic agents.

[5] = tested on: Ang-1; assay: Ang-1 expression in fetal NSC cultures; type: cell-based, mouse; conditions: fetal NSCs in culture, treatment 2 days
Description: as §1
(§3) Fetal NSCs in culture express Ang-1, and treatment (2 days) with Dll4 maintained it whereas CNTF reduced it. Ang-2 expression was maintained under these conditions. […] Ang-2 induced mTOR and STAT3-S727 phosphorylation, unlike Ang-1 (FIG. 2a). Ang-1, however, induced Akt phosphorylation.

[6] = tested on: Akt; assay: Akt phosphorylation in NSC cultures; type: cell-based, mouse; conditions: 0.5 μg/ml (FIG. 2a)
Description: as §1, §3

[7] = tested on: mTOR; assay: mTOR phosphorylation in NSC cultures (Western blot); type: cell-based, mouse; conditions: NSC cultures, 0.5 μg/ml (FIG. 2a, Example 3)
Description: as §1, §3
Three characterized Tie-2 receptor antibodies were used to determine if the Tie-2 receptor was expressed in the immature neural precursor cells found in the SVZ of the adult brain. When ligand is bound, the Tie-2 receptor becomes phosphorylated. An antibody that recognizes the activated receptor (RnD Systems, AF2720) and another antibody that binds to a distinct site (Santa Cruz, sc-324) identified many positive cells in the subventricular zone of the adult rat brain. In regions that were more distant from the ventricle, Tie-2 was expressed predominantly on blood vessels and endothelial cells reacted with antibodies against the activated receptor. Precursor cells that proliferate in vitro can be readily derived from the fetal and adult brain. The homogeneity of these cell populations in attached culture and their potential to generate neurons and glia is supported by clonal analysis. […] This colony number assay measured the survival of precursor cells that could differentiate into neurons and glia (See, Table 1).

| Molecule | Activation of the insulin/IGF-1 receptors by insulin treatment [1] | Activation of the Notch receptor by addition of insulin or Dll4 [2] | Hes3 protein expression [3] | % of cells with at least one spike [4] [%] | spike number [4] | Ang-1 expression [5] | Akt phosphorylation [6] | mTOR phosphorylation [7] |
| --- | --- | --- | --- | --- | --- | --- | --- | --- |
| C[C@H](NC(=O)Cc1cc(F)cc(F)c1)C(=O)N[C@H](C(=O)OC(C)(C)C)c1ccccc1 [DAPT, reference compound] | partly blocked | inhibited | – | – | – | – | – | – |
| CNTF: CNTF (577-NT) from R&D; induces differentiation of NSCs (protein, UniProt P26441 1-200, looked up) Ciliary neurotrophic factor: MAFTEHSPLTPHRRDLCSRSIWLARKIRSDLTALTESYVKHQGLNKNINLDSADGMPVASTDQWSELTEAERLQENLQAYRTFHVLLARLLEDQQVHFTPTEGDFHQAIHTLLLQVAAFAYQIEELMILLEYKIPRNEADGMPINVGDGGLFEKKLWGLKVLQELSQWTVRSIHDLRFISSHQTGIPARGSHYIANNKKM | – | – | lost | 0.8 | do not increase | reduced | – | – |
| Ang-1: human angiopoietin-1 (923-AN) from R&D (protein, UniProt Q15389 16-498, looked up) Angiopoietin-1: HIGCSNQRRSPENSGRRYNRIQHGQCAYTFILPEHDGNCRESTTDQYNTNALQRDAPHVEPDFSSQKLQHLEHVMENYTQWLQKLENYIVENMKSEMAQIQQNAVQNHTATMLEIGTSLLSQTAEQTRKLTDVETQVLNQTSRLEIQLLENSLSTYKLEKQLLQQTNEILKIHEKNSLLEHKILEMEGKHKEELDTLKEEKENLQGLVTRQTYIIQELEKQLNRATTNNSVLQKQQLELMDTVHNLVNLCTKEGVLLKGGKREEEKPFRDCADVYQAGFNKSGIYTIYINNMPEPKKVFCNMDVNGGGWTVIQHREDGSLDFQRGWKEYKMGFGNPSGEYWLGNEFIFAITSQRQYMLRIELMDWEGNRAYSQYDRFHIGNEKQNYRLYLKGHTGTAGKQSSLILHGADFSTKDADNDNCMCKCALMLTGGWWFDACGPSNLNGMFYTAGQNHGKLNGIKWHYFKGPSYSLRSTTMMIRPLDF | – | – | – | 0.8 | do not increase | – | induced | inhibits |
